Consider one molecule from patent US20020045192A1 (ST JUDE CHILDREN S RESEARCH HOSPITAL, published 2002).

Where no end group is shown, it is not given here.

Assay [1] addresses Hdm2 210-275 (residues 210-275 of SEQ ID NO:8, His tag cleaved) (human, UniProt Q00987 210-275). The assay is described as follows: CD titration, ellipticity at 200 nm. As for the experimental part:
(§1) Further, saturable binding is also observed when the Hdm2 fragments were added to an excess of mArfN37.

For assay [2], the target named is T1, Hdm2 210-304 (residues 210-304 of SEQ ID NO:8, His tag cleaved) (human, UniProt Q00987 210-304).
T1 construct: Non-His-tagged analyte in SPR; also used in CD, NMR, gel filtration
In words: CD titration, ellipticity at 200 nm. As for the experimental part: as §1

T1 sequence (Q00987 210-304): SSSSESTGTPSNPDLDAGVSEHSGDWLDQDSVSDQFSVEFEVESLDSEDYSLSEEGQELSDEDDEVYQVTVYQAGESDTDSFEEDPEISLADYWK
Sequence of Hdm2 210-275 (residues 210-275 of SEQ ID NO:8, His tag cleaved) (Q00987 210-275): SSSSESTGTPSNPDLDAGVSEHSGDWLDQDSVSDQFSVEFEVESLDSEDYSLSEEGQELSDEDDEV

B1: mArfN37 (N-terminal fragment of mouse p19Arf, residues 1-37, His tag cleaved) (peptide)
chain: MGRRFLVTVRIQRAGRPLQERVFLVKFVRSRRPRTAS
modifications: not fully specified
notes: Tag-cleaved form used in CD, NMR and gel filtration; also called 15N-mArfN37
Take B1: the Kd in assay [1] and in assay [2] was below 5 µM in each case.
